The experiment has as its target T1, SETD3 (Homo sapiens, UniProt Q86TU7).
T1 construct: GST (cleaved yes); made in house; host or cells: Escherichia coli BL21(DE3) CodonPlus
T1 sequence (Q86TU7 1-594): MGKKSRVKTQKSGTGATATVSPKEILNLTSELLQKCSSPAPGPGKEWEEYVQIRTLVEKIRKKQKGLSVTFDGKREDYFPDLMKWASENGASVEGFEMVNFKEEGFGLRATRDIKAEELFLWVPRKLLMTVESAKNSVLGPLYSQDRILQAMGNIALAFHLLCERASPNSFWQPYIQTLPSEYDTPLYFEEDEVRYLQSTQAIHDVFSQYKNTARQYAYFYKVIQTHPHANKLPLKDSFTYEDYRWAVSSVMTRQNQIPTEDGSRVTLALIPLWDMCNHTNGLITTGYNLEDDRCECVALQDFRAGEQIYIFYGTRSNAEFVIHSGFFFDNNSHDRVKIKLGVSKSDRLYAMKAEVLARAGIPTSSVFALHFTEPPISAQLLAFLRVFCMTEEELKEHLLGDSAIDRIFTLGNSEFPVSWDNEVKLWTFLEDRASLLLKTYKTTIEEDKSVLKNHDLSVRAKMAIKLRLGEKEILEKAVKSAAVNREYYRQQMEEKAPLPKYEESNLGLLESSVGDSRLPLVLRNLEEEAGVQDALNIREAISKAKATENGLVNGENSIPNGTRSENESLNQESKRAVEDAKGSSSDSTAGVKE
Description: SETD3 activity on K73(66-80) at two temperatures (Supplementary Fig. 3c). As to conditions: overnight, pH 8.0, [E]=15 µM, [SAM]=100 µM, [S]=700 µM. The class given is biochemical. The protocol:
Recombinant human SETD3 (pXC2003) was expressed as a GST-fusion[22] in Escherichia coli BL21(DE3) CodonPlus^TM cells (Stratagene). The SETD3 mutants at residue 255 (N255A; pXC2093 and N255V; pXC2094) were generated with Q5 Site-Directed Mutagenesis Kit (New England Biolabs), confirmed by sequencing and the same protocol for expression and purification were followed. Briefly, the purification was conducted in a BIO-RAD NGC^TM system using a three-column chromatography of glutathione-sepharose, HiTrap Q-HP and Superdex 200. The GST tag was removed by PreScisson Protease (purified in-house). The purified SETD3 proteins at a concentration ~25–35 mg/ml were kept at −80 °C in storage buffer for future use [20 mM Tris (pH 8.0), 200 mM NaCl, 5% glycerol, and 0.5 mM tris (2-carboxyethyl) phosphine (TCEP)].
For H73 (residues 66–80), a reaction mixture contained 20 mM Tris/HCl (pH 8.0), 50 mM NaCl, 0.1 mg/ml BSA, 1 mM DTT, 0.18 µM SETD3, 40 µM SAM, and 20 µM H73 peptide, the reaction was performed for 20 min (Supplementary Fig. 3b). For K73 (residues 66–80), a reaction mixture contained 20 mM Tris/HCl (pH 8.0), 50 mM NaCl, 0.1 mg/ml BSA, 1 mM DTT, 15 µM SETD3, 100 µM SAM, and 700 µM K73 peptide, the reaction was performed overnight (Supplementary Fig. 3c). All reactions were terminated by the addition of TFA to 0.1% (v/v). […]
conditions optimized for H73(66-80) (red line): [E]=0.18 µM, [SAM]=40 µM, [S]=20 µM, pH 8.0 at room temperature for indicated reaction time. b, SETD3 activity on H73(66-80) at two difference temperatures under the conditions of [E]=0.18 µM, [SAM]=40 µM, [SH7 3]=20 µM at pH 8. 0 for 20 min reaction. c, SETD3 activity on K73 (66-80 ) at room temperature (~22 °C) and 37 °C under the conditions of increased amounts of [E]=15 µM, [SAM]=100 µM and [S K73]=700 µM at pH 8.0 for overnight reaction. Data represent the mean ± SD of N number of independent determinations (N=2 in panels a and b and N=4 in panel c) performed in duplicate. Source data are provided as a Source Data file. d, A stereo image of omit electron density (Fo -Fc) omitting the side chain of K73 in the active site contoured at 4 s above the mean.
(1 picture or pasted object on this page, not shown here)

Turning to “K73(66–80): K73-containing (H73K) actin peptide, residues 66–80 (TLKYPIEKGIVTNWD; UniProt P60709 66-80, looked up, variant H73K)”, the CH3 transferred by setting is: (37 °C, replicate 1) 1.773 µM; (37 °C, replicate 2) 2.482 µM; (37 °C, replicate 3) 3.183 µM; (37 °C, replicate 4) 3.325 µM; (RT (~22 °C), replicate 1) 0.6813 µM; (RT (~22 °C), replicate 2) 0.8003 µM. Further, the CH3 transferred (RT (~22 °C), replicate 3) turned out to be 0.7535 µM and the CH3 transferred (RT (~22 °C), replicate 4) is 0.7963 µM.
